Measured values reported in patent US20100062512A1 (CRUCELL HOLLAND B V, published 2010).

Biological target: T1, Factor XI from DEAE treated human plasma (human, UniProt P03951 19-625)
T1 construct: mature; Plasma-derived, not purified when it was loaded on the Protein G column; also called FXI
Assay: Protein G column chromatography of 25 ml DEAE treated human plasma
Experimental: Therefore, 25 ml DEAE treated human plasma was subjected to a 1 ml Protein G column, to which IgG's selectively bound while more than 99% of the loaded Factor XI appeared in the flowthrough. Thus, a biological fluid containing Factor XI and depleted of IgG's was obtained.

T1 sequence (P03951 19-625 limits assumed): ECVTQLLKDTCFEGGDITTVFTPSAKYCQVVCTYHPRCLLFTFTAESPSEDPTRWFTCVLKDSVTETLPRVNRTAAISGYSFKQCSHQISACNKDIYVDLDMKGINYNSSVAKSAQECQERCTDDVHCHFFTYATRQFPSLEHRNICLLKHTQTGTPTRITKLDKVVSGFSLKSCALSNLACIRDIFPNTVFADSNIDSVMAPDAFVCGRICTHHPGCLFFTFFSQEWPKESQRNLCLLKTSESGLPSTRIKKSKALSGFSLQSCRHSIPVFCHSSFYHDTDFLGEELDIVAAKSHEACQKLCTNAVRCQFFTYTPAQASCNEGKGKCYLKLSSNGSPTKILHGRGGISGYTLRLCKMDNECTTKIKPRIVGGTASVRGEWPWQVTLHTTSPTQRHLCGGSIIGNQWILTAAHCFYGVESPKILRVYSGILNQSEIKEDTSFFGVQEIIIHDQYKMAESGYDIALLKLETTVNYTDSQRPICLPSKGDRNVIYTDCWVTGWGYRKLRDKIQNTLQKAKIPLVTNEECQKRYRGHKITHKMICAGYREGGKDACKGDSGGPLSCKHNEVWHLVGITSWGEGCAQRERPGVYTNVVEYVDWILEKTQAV

B1: Protein G (1 ml Protein G column) (other, UniProt P19909 303-497, looked up)
chain: TYKLILNGKTLKGETTTEAVDAATAEKVFKQYANDNGVDGEWTYDDATKTFTVTEKPEVIDASELTPAVTTYKLVINGKTLKGETTTEAVDAATAEKVFKQYANDNGVDGEWTYDDATKTFTVTEKPEVIDASELTPAVTTYKLVINGKTLKGETTTKAVDAETAEKAFKQYANDNGVDGVWTYDDATKTFTVTE
notes: Immobilised Protein G
binding result: no binding (tested: more than 99% in flowthrough)
